# According to patent US20070196354A1, “Method of treating diabetes by inhibiting degradation of at least one of crebl1, atf6, and hnf-4 alpha by htra” (priority 2003, published 2007):
# Key:
# [1] = target: T1, ATF6 (SEQ ID NO: 18) with c-Myc-tag ligated at the N-terminal
# T1 chain: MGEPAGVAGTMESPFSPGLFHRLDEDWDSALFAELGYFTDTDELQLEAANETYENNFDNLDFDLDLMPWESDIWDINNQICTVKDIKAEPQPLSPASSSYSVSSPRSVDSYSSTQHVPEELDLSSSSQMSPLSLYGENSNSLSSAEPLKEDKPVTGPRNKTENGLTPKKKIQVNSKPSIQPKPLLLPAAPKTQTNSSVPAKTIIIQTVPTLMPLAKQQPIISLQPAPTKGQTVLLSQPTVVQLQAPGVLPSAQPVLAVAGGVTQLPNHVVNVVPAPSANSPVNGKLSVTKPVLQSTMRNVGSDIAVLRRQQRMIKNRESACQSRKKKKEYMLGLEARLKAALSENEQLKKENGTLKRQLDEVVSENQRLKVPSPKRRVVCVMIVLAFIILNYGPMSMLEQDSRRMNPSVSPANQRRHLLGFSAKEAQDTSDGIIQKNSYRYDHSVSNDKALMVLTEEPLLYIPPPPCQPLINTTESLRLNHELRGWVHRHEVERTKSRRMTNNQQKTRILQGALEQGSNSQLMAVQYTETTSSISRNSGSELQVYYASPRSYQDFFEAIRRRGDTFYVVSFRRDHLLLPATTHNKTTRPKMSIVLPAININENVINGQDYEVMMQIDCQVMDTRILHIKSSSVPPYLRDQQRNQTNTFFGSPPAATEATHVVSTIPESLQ
# [2] = target: T2, CREBL1 (SEQ ID NO: 16) with c-Myc-tag ligated at the N-terminal
# T2 chain: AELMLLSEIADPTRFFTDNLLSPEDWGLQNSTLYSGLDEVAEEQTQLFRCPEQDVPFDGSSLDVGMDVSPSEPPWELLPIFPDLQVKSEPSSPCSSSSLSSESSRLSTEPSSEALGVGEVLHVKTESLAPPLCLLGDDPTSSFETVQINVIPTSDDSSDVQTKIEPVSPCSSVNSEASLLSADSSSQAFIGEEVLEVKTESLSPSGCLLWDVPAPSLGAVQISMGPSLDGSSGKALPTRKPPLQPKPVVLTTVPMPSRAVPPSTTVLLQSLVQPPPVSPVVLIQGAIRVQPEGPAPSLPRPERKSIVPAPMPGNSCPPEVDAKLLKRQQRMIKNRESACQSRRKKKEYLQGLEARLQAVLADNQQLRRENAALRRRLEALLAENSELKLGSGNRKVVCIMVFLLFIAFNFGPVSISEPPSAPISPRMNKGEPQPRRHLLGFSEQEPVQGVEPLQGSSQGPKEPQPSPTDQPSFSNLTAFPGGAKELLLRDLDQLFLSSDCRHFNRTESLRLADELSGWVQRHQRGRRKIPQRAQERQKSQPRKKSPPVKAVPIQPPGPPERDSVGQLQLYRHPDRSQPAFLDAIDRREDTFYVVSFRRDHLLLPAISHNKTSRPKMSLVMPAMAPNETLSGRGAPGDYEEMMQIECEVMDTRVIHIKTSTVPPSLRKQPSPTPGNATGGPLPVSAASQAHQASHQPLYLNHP
# [3] = target: T3, biotinylated CREBL1 (N-terminal tagged-CREBL1 with biotinylated lysine residue within the protein)
# T3 chain: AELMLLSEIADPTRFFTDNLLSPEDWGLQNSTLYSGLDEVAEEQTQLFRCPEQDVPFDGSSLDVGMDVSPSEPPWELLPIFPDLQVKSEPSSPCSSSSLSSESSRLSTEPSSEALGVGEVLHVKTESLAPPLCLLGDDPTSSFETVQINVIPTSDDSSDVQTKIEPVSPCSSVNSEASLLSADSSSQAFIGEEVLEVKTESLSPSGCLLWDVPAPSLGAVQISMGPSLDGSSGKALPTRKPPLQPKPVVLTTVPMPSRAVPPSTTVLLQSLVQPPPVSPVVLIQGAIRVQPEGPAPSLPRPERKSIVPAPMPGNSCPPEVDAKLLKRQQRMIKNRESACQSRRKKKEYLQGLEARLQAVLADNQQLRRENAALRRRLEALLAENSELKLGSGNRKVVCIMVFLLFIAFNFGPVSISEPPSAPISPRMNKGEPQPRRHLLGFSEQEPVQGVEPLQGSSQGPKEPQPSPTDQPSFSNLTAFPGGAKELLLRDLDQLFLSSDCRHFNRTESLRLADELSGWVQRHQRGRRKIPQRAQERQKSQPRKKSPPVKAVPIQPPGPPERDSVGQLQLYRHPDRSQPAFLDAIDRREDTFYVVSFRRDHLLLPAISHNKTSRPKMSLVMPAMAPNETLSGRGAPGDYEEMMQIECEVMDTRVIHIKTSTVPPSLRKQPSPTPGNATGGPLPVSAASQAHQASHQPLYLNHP
# [4] = target: T4, HNF-4α (SEQ ID NO: 35) with N-terminal tag, as used in Example 6
# T4 chain: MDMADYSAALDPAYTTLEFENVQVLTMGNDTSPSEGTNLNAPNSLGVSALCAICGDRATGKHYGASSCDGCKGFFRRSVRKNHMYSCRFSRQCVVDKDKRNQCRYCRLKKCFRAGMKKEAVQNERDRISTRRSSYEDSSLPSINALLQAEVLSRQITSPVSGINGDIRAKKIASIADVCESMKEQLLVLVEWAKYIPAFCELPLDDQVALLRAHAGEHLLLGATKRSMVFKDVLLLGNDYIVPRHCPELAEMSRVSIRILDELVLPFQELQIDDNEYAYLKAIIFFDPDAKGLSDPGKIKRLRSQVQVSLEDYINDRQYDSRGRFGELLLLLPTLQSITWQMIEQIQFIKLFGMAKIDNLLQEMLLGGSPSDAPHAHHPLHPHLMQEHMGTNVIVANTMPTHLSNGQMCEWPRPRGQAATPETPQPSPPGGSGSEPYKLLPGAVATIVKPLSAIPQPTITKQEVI
Protein,in vitro protease assay; western blotting of ATF6 band [1],in vitro protease assay; western blotting of CREBL1 band [2],in vitro protease assay; degradation pattern of biotinylated CREBL1 by western blotting (streptavidin HRP) [3],in vitro protease assay; western blotting of HNF-4α band [4]
mature HtrA2 (SEQ ID NO: 4) with histidine (His)-tag ligated at the C-terminal (protein) MAVPSPPPASPRSQYNFIADVVEKTAPAVVYIEILDRHPFLGREVPISNGSGFVVAADGLIVTNAHVVADRRRVRVRLLSGDTYEAVVTAVDPVADIATLRIQTKEPLPTLPLGRSADVRQGEFVVAMGSPFALQNTITSGIVSSAQRPARDLGLPQTNVEYIQTDAAIDFGNSGGPLVNLDGEVIGVNTMKVTAGISFAIPSDRLREFLHRGEKKNSSSGISGSQRRYIGVMMLTLSPSILAELQLREPSFPDVQHGVLIHKVILGSPAHRAGLRPGDVILAIGEQMVQNAEDVYEAVRTQSQLAVQIRRGRETLTLYVTPEVTE,the band of ATF6 was reduced significantly after the reaction of active HtrA2 with ATF6 for four hours (4 h) or overnight (O/N),the band of CREBL1 was reduced significantly after the reaction of active HtrA2 with CREBL1 for overnight (O/N),"remarkable reduction of the band of biotinylated CREBL1 was observed, and further, the band that was supposed to be a degradation product of CREBL1 was detected around 50 kDa",the band of HNF-4α was reduced significantly after the reaction of active HtrA2 with HNF-4α for overnight (O/N)
mature HtrA2 (S306A) (SEQ ID NO: 6) with histidine (His)-tag ligated at the C-terminal (protein) MAVPSPPPASPRSQYNFIADVVEKTAPAVVYIEILDRHPFLGREVPISNGSGFVVAADGLIVTNAHVVADRRRVRVRLLSGDTYEAVVTAVDPVADIATLRIQTKEPLPTLPLGRSADVRQGEFVVAMGSPFALQNTITSGIVSSAQRPARDLGLPQTNVEYIQTDAAIDFGNAGGPLVNLDGEVIGVNTMKVTAGISFAIPSDRLREFLHRGEKKNSSSGISGSQRRYIGVMMLTLSPSILAELQLREPSFPDVQHGVLIHKVILGSPAHRAGLRPGDVILAIGEQMVQNAEDVYEAVRTQSQLAVQIRRGRETLTLYVTPEVTE,the degradation of CREBL1 and ATF6 by inactive HtrA2 (mature HtrA2 (S306A)) was not observed,the degradation of CREBL1 and ATF6 by inactive HtrA2 (mature HtrA2 (S306A)) was not observed,"the degradation of CREBL1 by inactive HtrA2 (mature HtrA2 (S306A)) was not observed, and the band around 50 kDa as above was not detected",the degradation of HNF-4α by inactive HtrA2 (mature HtrA2 (S306A)) was not observed
